This assay deals with mouse VLDLR (skeletal muscle) (mouse) (UniProt P98156). Kind of assay: cell-based or functional assay.

Some results are limits rather than exact numbers.

Sequence of mouse VLDLR (skeletal muscle) (mouse) (P98156 28-873): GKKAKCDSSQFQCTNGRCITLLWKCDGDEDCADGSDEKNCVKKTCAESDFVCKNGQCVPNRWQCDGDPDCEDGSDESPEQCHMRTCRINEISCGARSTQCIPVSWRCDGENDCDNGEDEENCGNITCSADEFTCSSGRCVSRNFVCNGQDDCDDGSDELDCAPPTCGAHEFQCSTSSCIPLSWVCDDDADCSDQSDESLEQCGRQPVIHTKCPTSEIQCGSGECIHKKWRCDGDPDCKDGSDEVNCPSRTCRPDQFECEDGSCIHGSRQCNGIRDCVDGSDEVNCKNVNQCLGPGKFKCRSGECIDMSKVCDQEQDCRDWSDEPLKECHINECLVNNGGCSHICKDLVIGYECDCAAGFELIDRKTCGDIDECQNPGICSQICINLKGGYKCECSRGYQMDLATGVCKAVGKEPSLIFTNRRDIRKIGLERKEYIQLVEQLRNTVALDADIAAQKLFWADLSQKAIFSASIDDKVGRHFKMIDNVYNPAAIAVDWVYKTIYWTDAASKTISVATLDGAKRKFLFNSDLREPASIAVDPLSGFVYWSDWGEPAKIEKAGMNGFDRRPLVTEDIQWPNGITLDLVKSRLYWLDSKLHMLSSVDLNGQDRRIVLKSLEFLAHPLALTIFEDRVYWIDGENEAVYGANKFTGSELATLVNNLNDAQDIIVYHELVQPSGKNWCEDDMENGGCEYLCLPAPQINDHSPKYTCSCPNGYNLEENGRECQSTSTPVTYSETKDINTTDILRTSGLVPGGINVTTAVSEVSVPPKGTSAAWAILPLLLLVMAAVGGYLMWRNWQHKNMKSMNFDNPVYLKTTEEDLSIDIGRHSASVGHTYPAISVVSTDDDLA

“wild type human PCSK9 with C-terminal V5 tag (from UniProt Q8NBP7 31-692) (enzyme)” displayed a level of VLDLR in muscle of transgenic mice against non-transgenic control littermates of under 3 fold.

The values are drawn from patent publication US20110003315A1.
